Data as given in the supplement of paper PMC12042874.
± gives the uncertainty stated by the source.

Test: amyloid nucleation score (Sup35N fusion, yeast selection) (log enrichment); library NNK3; higher = more nucleation; inactive = no reads after selection
In short: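 Nucleation score is defined as the DiMSum log enrichment of output over input reads, with centring on the mode score of non-aggregating sequences. A minimum of 100 input reads was required for each sequence. Reads came from Illumina sequencing of plasmid inserts from psi-negative yeast expressing Sup35N fused to peptides of 20 random codons, induced with 100 μM copper sulfate for 24 hours and grown 7 days at 30°C on medium lacking adenine and uracil.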

Substance	amyloid nucleation score
SKFSSC	inactive
SKGSWHVFNKGSEWVKYFGM	inactive
SKGTLKHLN	0.921 ± 0.12
SKIFVNIDYVKVFRMICEWR	inactive
SKIGILWCLMSEECYLFQFR	inactive
SKIVNHFNDHYHFEITCQYQ	2.88 ± 0.057
SKLRYRCSNSHQVIGTPCLD	inactive
SKSARVLSFYYPYFFISINL	inactive
SKTHRSVFMMAVIELKPTNS	inactive
SKVPYPNLVTCVVLCVGFYV	inactive
SLASRHIGHLLISFLLGYGA	inactive
SLCNGCMIK	inactive
SLDKLAFRD	inactive
SLEHHQIIYVLARPACL	inactive
SLFLLFLWYGINDTYLVYFV	inactive
SLFRNS	inactive
SLGNYHTLGMVFRLA	-0.093 ± 0.48
SLGRFDLMCHTKYLSTTVVF	inactive
SLGYGDI	inactive
SLHWVYYIINYTVALTGVLL	inactive
SLHYEHLAGMTCRLVLEYLI	inactive
SLIQY	inactive
SLIYTRFGSTSWCSKNF	1.53 ± 0.14

Substance	amyloid nucleation score
SLKMK	inactive
SLLALNRSPVLMRYISEHCN	inactive
SLLDGTYYNTI	inactive
SLLNSNHHGRVMQPRRINSD	inactive
SLLYFLRNVKC	inactive
SLMEGYSFSVPRSASRCSSQ	inactive
SLMNHLSGTKVMLGRLRYSN	inactive
SLMPMNYYGVTINVRWSLIQ	0.554 ± 0.45
SLRDRKDRWGCQMLRRWVDF	inactive
SLRFISSLWV	inactive
SLRFMLWLLL	inactive
SLRLSCVDVQVNN	-0.253 ± 0.9
SLRSCGSGLRSYRAVKTLPG	inactive
SLSEEYDTLPATWTAQVCKR	inactive
SLSHECTSNKTEQVIERRLW	inactive
SLSIVETIGVCL	inactive
SLTMNLFVRTASCGLASRVR	-0.541 ± 1.7
SLVYACSSEL	inactive
SLWNDFMCQSCLGVIVNGAA	0.253 ± 0.6
SLWPSRNCVDEEVFDFSDKS	inactive
SLWVSI	inactive
SLYFDT	inactive
SMDCFYLSHCRYRPRVI	inactive

Substance	amyloid nucleation score
SMDMRWAFICLILTITSMGR	inactive
SMDVLRFDQYRWLYRVFNLH	inactive
SMFCMVSFMMW	-0.071 ± 0.22
SMFGLRLIDG	inactive
SMFMLCVSADGEFFNCGTNH	inactive
SMHRQVPFPMKKHLEHLSMT	inactive
SMINKRR	1.16 ± 0.15
SMIYRLRSWVQYCDSQC	0.344 ± 0.21
SMKEVLMTSGTSNVITSGGD	inactive
SMKLLT	-0.254 ± 0.7
SMLLVGTPDIIGDS	inactive
SMNTHGCFYRRYLSESPFEC	inactive
SMRSA	inactive
SMSMDAYPQPPLNAMVLVSH	inactive
SMVVERGNQRLRSTYYADCV	inactive
SNASIYRSFWWGKYSRA	-0.619 ± 0.82
SNDFEVLVLQLLYFSIWCY	1.48 ± 0.091
SNEEYGGSQKETCTIGSSLG	inactive
SNFFRYIFYTRSQFSFQLIN	inactive
SNIDCLFNNVLCWIVFEWC	1.07 ± 0.11
SNIRYRNFRSGFFIQWLHTG	inactive
SNLHMILDGWEMCALHAAMG	inactive
SNLLCEALETRLYPRLKHVR	inactive

Substance	amyloid nucleation score
SNLMYGNISINLDRWYVAFF	2.51 ± 0.074
SNMNV	inactive
SNMSMMSYYAGRDPRPVSFL	inactive
SNRNRTTNMNHEPLANYSFN	inactive
SNYVMKVYRACHQVQPTISA	inactive
SPARRLAAFGFVVL	-0.385 ± 1.2
SPCIVLVQKLCGLGCRFVSV	1.68 ± 0.11
SPLKIMH	inactive
SPLNQVSGYIMFWYSGT	inactive
SPQLNCEANWKVFCWAGMDP	inactive
SPRSFIILVGNGYISCSSVE	2.56 ± 0.073
SPTRQLIKFKYSGHYIVHLR	inactive
SPVHLCMDLGSS	inactive
SPVVIRFTLLIKCRWLVVWI	inactive
SQACNHLVADRSTIGELSRM	inactive
SQFDAYPCKMFHVYKNYP	inactive
SQFTEICTPVRHGSCCR	inactive
SQKFVYLMSPSWPGGQLEAR	inactive
SQLAYVGTVKTNFDKISRCG	inactive
SQLKMSYRHYPMMMCVIVFS	inactive
SQQRQVMPKRQSEKLYPSH	inactive
SQRELYH	inactive
SQSWMSNLLMGSRDDL	1.58 ± 0.13

Substance	amyloid nucleation score
SQTLQKDLAPSAKLCKIPGV	inactive
SQYIWFFSVVLSFFSSVSWC	-0.021 ± 0.85
SRAMVKVRSNFRQRK	inactive
SRFFGGRYSVLS	inactive
SRGTRSK	inactive
SRHFTIEVSQFCIISQGVNL	inactive
SRITNHDD	inactive
SRKGDMPLDIDSWTCTVAFF	1.13 ± 0.12
SRLIRKMKCVMGSTSSTIGY	inactive
SRPLHFVYVIWGCPDQSDRN	inactive
SRQRIDYFMVRRSGSWSRQV	inactive
SRRVN	inactive
SRSCVACGLY	inactive
SRSVMIPVNS	-0.038 ± 0.75
SRSVSESDVMGTVGIYAEFS	inactive
SRTLTVYRVCHHIESSTNNF	inactive
SRVDPLLRNWDCRFSSLLL	0.935 ± 0.096
SRVFARFDEEDRDNSRKRTV	inactive
SRVTSIWRGYNFINIKRGDL	-0.42 ± 1.3
SRWLSDSEIENKWFLISDMT	inactive
SRWSGFCIYRGN	inactive
SRWTEACI	inactive
SSAGVGVAKVGARHRLRRCW	inactive

Substance	amyloid nucleation score
SSAIMCWRFMLMNSILITTP	inactive
SSARAKWSDQQMSSYRA	inactive
SSEKLMQGFKVRLVCHFLAR	inactive
SSFPGWDIECIC	inactive
SSFSVSVVSKGKSVRNSGSL	0.568 ± 0.33
SSFYCRAFGDRNVWKWQWCL	inactive
SSGFSKSKYYICVLQFVGVV	inactive
SSGGCR	inactive
SSGLMLWFDWLLVWRGCRLR	inactive
SSIHVGVYYFMCMLEDVSRE	1.07 ± 0.14
SSITVF	inactive
SSKARSQSCVLRMMIPDRQW	inactive
SSKNINVILMIKR	2.05 ± 0.066
SSLCTL	inactive
SSLVSCYRIFNRSGADLGLT	inactive
SSLWSNK	inactive
SSMSRVCEIKVLYNMSGVYT	inactive
SSMYISAPSLCYLDFGLEKW	inactive
SSNDPQHHVDAGEADQRSRV	inactive
SSPCSVMVKVGSDHFERVAI	inactive
SSPRPLCPDLRLVDIIQILI	inactive
SSRAAVY	inactive
SSRINWSASLNSLTVTVD	inactive

Substance	amyloid nucleation score
SSSATGPAYGNKQATFRRLV	-0.457 ± 0.9
SSTPIFFLFFKSVQQVFNFP	0.722 ± 0.18
SSVKGTYIFIYDVVMLR	inactive
SSVVT	inactive
SSWFNGSLTVRQLIQRGRLF	inactive
SSYLI	inactive
SSYSWMGVFIYLDRIINYTH	-0.339 ± 0.63
SSYVLNYIHLSG	1.88 ± 0.08
STCLTD	inactive
STCYSCVMLMVGS	inactive
STDNVGMGKGWTGVIGWRVM	inactive
STDQSASRVSERQLLCLPLT	inactive
STDWDFHMRTFPGHVTKCWK	inactive
STLQVVEKPKIAPSLRCDSC	-0.169 ± 0.51
STMWYYMLVVIMRSCRAGDR	0.793 ± 0.17
STNSRFFSAYCSVVGMRRHA	inactive
STNWMVRLFYSRIEWGVNLG	inactive
STRAVQIRKSRGFAGYPGN	inactive
STRMRYICCSCLL	2.99 ± 0.078
STSFCSSLDLWSQEVIVASV	inactive
STTVTGLYKNFRHYVSGRCG	inactive
STVNVCYVSMGNWERLTDVR	0.446 ± 0.26
